Data on three substances can be found in patent publication US20150056162A1.

Broadly, the Kd is the concentration at which binding is half-saturated.

The target of test [1] is IL-13Rα1 ectodomain (amino acids 1-310), biotinylated (human) (UniProt P78552). The test is described as follows: SPR; kinetic. To be noted: ligand.
Test [2] has the same target. The test is described as follows: SPR; equilibrium. To be noted: ligand. On the technique in general: SPR reads the build-up and loss of mass on a sensor chip optically.

IL-13Rα1 ectodomain (amino acids 1-310), biotinylated (human), sequence (P78552 other isoform, or with tags, fused parts or gaps): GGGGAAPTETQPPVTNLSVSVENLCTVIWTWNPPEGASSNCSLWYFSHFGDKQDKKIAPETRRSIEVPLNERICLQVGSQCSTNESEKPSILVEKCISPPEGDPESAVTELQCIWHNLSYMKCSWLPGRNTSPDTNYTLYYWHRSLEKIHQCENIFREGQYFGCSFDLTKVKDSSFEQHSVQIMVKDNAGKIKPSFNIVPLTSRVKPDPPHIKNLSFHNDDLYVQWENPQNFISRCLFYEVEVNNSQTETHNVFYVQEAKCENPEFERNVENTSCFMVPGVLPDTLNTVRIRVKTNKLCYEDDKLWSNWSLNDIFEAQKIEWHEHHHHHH

“wild-type human IL-13 (from UniProt P35225 34-146)” yielded a Kd in test [1] of 4.38 nM.
Regarding “IL-13 variant C4 (from UniProt P35225 34-146)”, the Kd in test [2] came out at 36 µM. In other words, the double-digit micromolar range.
For the substance “IL-13 variant C11 (from UniProt P35225 34-146)”, the dissociation constant (Kd) in test [2] worked out at 1.6 µM.
